Consider two proteins from doi:10.1101/2025.06.11.659212 (bioRxiv, 2025).

The data set deals with the molecule itself. Kind of data set: cryo-EM structure.

B1: cyanide dihydratase from Bacillus safensis strain PER-URP-08 (enzyme, UniProt P0DXY3 1-330, looked up)
chain: MTSIYPKFRAAAVQAAPVYLNLEATVEKSCELIDEAASNGAKLVAFPEAFLPGYPWFAFIGHPEYTRKFYHELYKNAVEIPSLAIQKISEAAKRNETYVCISCSEKDGGSLYLAQLWFNPNGDLIGKHRKMRASVAERLIWGDGSGSMMPVFQTDIGNLGGLMCWEHQVPLDLMAMNAQNEQVHVASWPGYFDDEISSRYYAIATQTFVLMTSSIYTEEMKEMICLTQEQRDYFETFKSGHTCIYGPDGEPISDMVPAETEGIAYAEIDVERVIDYKYYIDPAGHYSNQSLSMNFNQQPTPVVKQLYHQKNEVFTYEDIQYQHGILEEKV
Broadly, the stoichiometry N is the number of molecules, sites or subunits per partner or assembly. B1: the “stoichiometry N” value is 18 monomers.

B2: cyanide hydratase from Gloeocercospora sorghi (enzyme, UniProt P32964 1-368, looked up)
chain: MPINKYKAAVVTSEPVWENLEGGVVKTIEFINEAGKAGCKLIAFPEVWIPGYPYWMWKVNYLQSLPMLKAYRENSIAMDSSEMRRIRAAARDNQIYVSIGVSEIDHATLYLTQVLISPLGDVINHRRKIKPTHVEKLVYGDGSGDSFEPVTQTEIGRLGQLNCWENMNPFLKSLAVARGEQIHVAAWPVYPDLSKQVHPDPATNYADPASDLVTPAYAIETGTWVLAPFQRISVEGLKRHTPPGVEPETDATPYNGHARIFRPDGSLYAKPAVDFDGLMYVDIDLNESHLTKALADFAGHYMRPDLIRLLVDTRRKELVTEVGGGDNGGIQSYSTMARLGLDRPLEEEDYRQGTDAGETEKASSNGHA
Turning to B2, the “stoichiometry N” value was found to be 24 monomers.
